Measured values published in publication PMC7969007, “The CRISPR ancillary effector Can2 is a dual-specificity nuclease potentiating type III CRISPR defence” (Nucleic Acids Research, 2021).

What was measured:
[1] = molecular target: Can2 (CRISPR ancillary nuclease 2) from Sulfobacillus thermosulfidooxidans, selenomethionine labelled (Sulfobacillus thermosulfidooxidans); experiment: crystal structure; SeMet SthCan2 at 8 mg/ml co-crystallised with cA4 at 1:1 protein:cA4; 20% (w/v) PEG 3350, 0.2 M ammonium nitrate pH 6.3, room temperature; 2.02 Å; four protein molecules in the asymmetric unit
SthCan2 = molecular target: T1, SthCan2 (Sulfobacillus thermosulfidooxidans, UniProt A0A8I3AZU2); experiment: X-ray crystal structure (co-crystal, […] A); type: binding; conditions: SeMet protein, protein:cA4 1:1 molar; one cA4 per dimer at the CARF dimer interface; allosteric activator of Mn2+-dependent nuclease; not degraded by the enzyme
T1 construct: synthetic gene in pEHisV5TEV, His tag cut by TEV, E. coli C43 (SeMet in B834 for the crystal); homodimer; residues 3-366 traced
T1 sequence (A0A8I3AZU2 1-366): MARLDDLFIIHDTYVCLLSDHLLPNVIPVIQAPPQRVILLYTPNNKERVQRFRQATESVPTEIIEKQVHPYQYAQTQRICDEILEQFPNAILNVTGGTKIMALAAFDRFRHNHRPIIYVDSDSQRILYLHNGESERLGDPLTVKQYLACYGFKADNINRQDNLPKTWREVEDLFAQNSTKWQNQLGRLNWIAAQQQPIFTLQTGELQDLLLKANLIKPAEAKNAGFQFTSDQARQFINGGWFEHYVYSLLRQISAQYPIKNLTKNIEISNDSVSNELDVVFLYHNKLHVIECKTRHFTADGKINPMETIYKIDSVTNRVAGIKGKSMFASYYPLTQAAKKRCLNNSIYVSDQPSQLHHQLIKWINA

stoichiometry N [1]	Molecule	X-ray crystal structure (co-crystal, 2.02 A) (SthCan2)
2	Can2 (CRISPR ancillary nuclease 2) from Sulfobacillus thermosulfidooxidans, selenomethionine labelled (enzyme)	
	Nc1ncnc2c1ncn2[C@@H]1O[C@@H]2COP(=O)(O)O[C@H]3[C@@H](O)[C@H](n4cnc5c(N)ncnc54)O[C@@H]3COP(=O)(O)O[C@H]3[C@@H](O)[C@H](n4cnc5c(N)ncnc54)O[C@@H]3COP(=O)(O)O[C@H]3[C@@H](O)[C@H](n4cnc5c(N)ncnc54)O[C@@H]3COP(=O)(O)O[C@H]2[C@H]1O [cA4]	form two dimers each bound to a molecule of cA4
